# Reference: paper PMC10397247
# T1: P8mS
# T1 chain: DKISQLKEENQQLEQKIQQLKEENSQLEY
# T2: P9mS
# T2 chain: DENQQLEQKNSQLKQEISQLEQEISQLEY
# T3: P5bH1
# T3 chain: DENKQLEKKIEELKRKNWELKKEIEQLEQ
# T4: P6bH1
# T4 chain: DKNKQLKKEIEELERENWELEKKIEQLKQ
# T5: P7bH1
# T5 chain: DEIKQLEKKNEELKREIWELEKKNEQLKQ
# T6: P8bH1
# T6 chain: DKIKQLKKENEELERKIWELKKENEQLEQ
# T7: P9bH1
# T7 chain: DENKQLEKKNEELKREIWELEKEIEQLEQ
# T8: 4H2585-bN
# T8 chain: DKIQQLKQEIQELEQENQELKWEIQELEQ
# T9: 4H264-bN
# T9 chain: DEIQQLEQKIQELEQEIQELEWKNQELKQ
# T10: 4H2760-bN
# T10 chain: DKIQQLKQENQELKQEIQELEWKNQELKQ
# T11: 4H2859-bN
# T11 chain: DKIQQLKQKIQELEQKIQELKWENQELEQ
# T12: 4H2931-bN
# T12 chain: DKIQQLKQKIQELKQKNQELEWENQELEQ
# T13: 4H3041-bN
# T13 chain: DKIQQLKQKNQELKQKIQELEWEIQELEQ
# T14: 4H3297-bN
# T14 chain: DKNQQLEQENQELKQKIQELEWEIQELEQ
# T15: 4H3364-bN
# T15 chain: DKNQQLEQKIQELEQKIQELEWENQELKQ
# T16: 4H3381-bN
# T16 chain: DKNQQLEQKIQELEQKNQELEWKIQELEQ
# T17: 4H346-bN
# T17 chain: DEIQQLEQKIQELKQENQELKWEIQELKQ
# T18: 4H349-bN
# T18 chain: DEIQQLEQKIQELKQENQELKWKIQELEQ
# T19: 4H56-bN
# T19 chain: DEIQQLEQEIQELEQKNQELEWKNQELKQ
# T20: 4H730-bN
# T20 chain: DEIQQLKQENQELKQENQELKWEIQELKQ
# T21: 4H796-bN
# T21 chain: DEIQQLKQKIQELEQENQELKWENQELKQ
# T22: 4H932-bN
# T22 chain: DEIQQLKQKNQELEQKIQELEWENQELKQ
# T23: 4H949-bN
# T23 chain: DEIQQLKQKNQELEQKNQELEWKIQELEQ
# T24: 4H2646-AA
# T24 chain: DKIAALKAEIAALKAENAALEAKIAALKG
# T25: 4H2687-AA
# T25 chain: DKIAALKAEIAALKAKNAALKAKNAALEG
# T26: 4H2705-AA
# T26 chain: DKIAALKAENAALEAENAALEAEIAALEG
# T27: 4H2758-AA
# T27 chain: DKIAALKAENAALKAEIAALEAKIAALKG
# T28: 4H278-AA
# T28 chain: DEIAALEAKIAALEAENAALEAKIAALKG
# T29: 4H2873-AA
# T29 chain: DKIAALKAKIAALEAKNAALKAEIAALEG
# T30: 4H2985-AA
# T30 chain: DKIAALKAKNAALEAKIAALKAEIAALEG
# T31: 4H3134-AA
# T31 chain: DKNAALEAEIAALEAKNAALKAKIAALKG
# T32: 4H3409-AA
# T32 chain: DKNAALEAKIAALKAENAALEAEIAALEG
# T33: 4H3625-AA
# T33 chain: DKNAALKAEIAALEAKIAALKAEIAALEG
# T34: 4H390-AA
# T34 chain: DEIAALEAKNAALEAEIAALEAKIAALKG
# T35: 4H3940-AA
# T35 chain: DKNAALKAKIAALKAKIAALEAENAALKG
# T36: 4H510-AA
# T36 chain: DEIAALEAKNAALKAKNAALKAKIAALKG
# T37: 4H775-AA
# T37 chain: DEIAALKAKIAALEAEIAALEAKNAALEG
# T38: 4H816-AA
# T38 chain: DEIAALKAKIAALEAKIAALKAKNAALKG
# T39: 4H87-AA
# T39 chain: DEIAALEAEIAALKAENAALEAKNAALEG
# T40: P4bH1
# T40 chain: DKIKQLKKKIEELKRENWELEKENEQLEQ
# Assays:
# P8mS = target: T1, P8mS; assay: two-hybrid library CCNG1;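 also: natural log of median RNA to DNA barcode read ratio; higher means stronger binding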
# P9mS = target: T2, P9mS; assay: two-hybrid library CCNG1;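 also: natural log of median RNA to DNA barcode read ratio; higher means stronger binding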
# P5bH1 = target: T3, P5bH1; assay: two-hybrid library CCNG1;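 also: natural log of median RNA to DNA barcode read ratio; higher means stronger binding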
# P6bH1 = target: T4, P6bH1; assay: two-hybrid library CCNG1;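 also: natural log of median RNA to DNA barcode read ratio; higher means stronger binding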
# P7bH1 = target: T5, P7bH1; assay: two-hybrid library CCNG1;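 also: natural log of median RNA to DNA barcode read ratio; higher means stronger binding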
# P8bH1 = target: T6, P8bH1; assay: two-hybrid library CCNG1;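 also: natural log of median RNA to DNA barcode read ratio; higher means stronger binding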
# P9bH1 = target: T7, P9bH1; assay: two-hybrid library CCNG1
# 4H2585-bN = target: T8, 4H2585-bN; assay: two-hybrid library CCNG1
# 4H264-bN = target: T9, 4H264-bN; assay: two-hybrid library CCNG1
# 4H2760-bN = target: T10, 4H2760-bN; assay: two-hybrid library CCNG1
# 4H2859-bN = target: T11, 4H2859-bN; assay: two-hybrid library CCNG1
# 4H2931-bN = target: T12, 4H2931-bN; assay: two-hybrid library CCNG1
# 4H3041-bN = target: T13, 4H3041-bN; assay: two-hybrid library CCNG1
# 4H3297-bN = target: T14, 4H3297-bN; assay: two-hybrid library CCNG1
# 4H3364-bN = target: T15, 4H3364-bN; assay: two-hybrid library CCNG1
# 4H3381-bN = target: T16, 4H3381-bN; assay: two-hybrid library CCNG1
# 4H346-bN = target: T17, 4H346-bN; assay: two-hybrid library CCNG1
# 4H349-bN = target: T18, 4H349-bN; assay: two-hybrid library CCNG1
# 4H56-bN = target: T19, 4H56-bN; assay: two-hybrid library CCNG1
# 4H730-bN = target: T20, 4H730-bN; assay: two-hybrid library CCNG1
# 4H796-bN = target: T21, 4H796-bN; assay: two-hybrid library CCNG1
# 4H932-bN = target: T22, 4H932-bN; assay: two-hybrid library CCNG1
# 4H949-bN = target: T23, 4H949-bN; assay: two-hybrid library CCNG1
# 4H2646-AA = target: T24, 4H2646-AA; assay: two-hybrid library CCmax
# 4H2687-AA = target: T25, 4H2687-AA; assay: two-hybrid library CCmax; conditions: mean of both orientations
# 4H2705-AA = target: T26, 4H2705-AA; assay: two-hybrid library CCmax; conditions: mean of both orientations
# 4H2758-AA = target: T27, 4H2758-AA; assay: two-hybrid library CCmax; conditions: mean of both orientations
# 4H278-AA = target: T28, 4H278-AA; assay: two-hybrid library CCmax; conditions: mean of both orientations
# 4H2873-AA = target: T29, 4H2873-AA; assay: two-hybrid library CCmax; conditions: mean of both orientations
# 4H2985-AA = target: T30, 4H2985-AA; assay: two-hybrid library CCmax; conditions: mean of both orientations
# 4H3134-AA = target: T31, 4H3134-AA; assay: two-hybrid library CCmax; conditions: mean of both orientations
# 4H3409-AA = target: T32, 4H3409-AA; assay: two-hybrid library CCmax; conditions: mean of both orientations
# 4H3625-AA = target: T33, 4H3625-AA; assay: two-hybrid library CCmax; conditions: mean of both orientations
# 4H390-AA = target: T34, 4H390-AA; assay: two-hybrid library CCmax; conditions: mean of both orientations
# 4H3940-AA = target: T35, 4H3940-AA; assay: two-hybrid library CCmax; conditions: mean of both orientations
# 4H510-AA = target: T36, 4H510-AA; assay: two-hybrid library CCmax; conditions: mean of both orientations
# 4H775-AA = target: T37, 4H775-AA; assay: two-hybrid library CCmax; conditions: mean of both orientations
# 4H816-AA = target: T38, 4H816-AA; assay: two-hybrid library CCmax; conditions: mean of both orientations
# 4H87-AA = target: T39, 4H87-AA; assay: two-hybrid library CCmax
# P4bH1 = target: T40, P4bH1; assay: two-hybrid library CCNG1
binder,measurement,setting,value
DKISQLKEENQQLEQKIQQLKEENSQLEY [P8mS],interaction score,P8mS,-1.02
same,interaction score,P9mS,-0.61
DENKQLEKKIEELKRKNWELKKEIEQLEQ [P5bH1],interaction score,P5bH1,-0.609
same,interaction score,P6bH1,1.31
same,interaction score,P7bH1,-2.02
same,interaction score,P8bH1,0.944
same,interaction score,P9bH1,-0.9
DKIQQLKQEIQELEQENQELKWEIQELEQ [4H2585-bN],interaction score,4H2585-bN,-0.804
same,interaction score,4H264-bN,-0.828
same,interaction score,4H2760-bN,-1.01
same,interaction score,4H2859-bN,0.161
same,interaction score,4H2931-bN,-0.905
same,interaction score,4H3041-bN,-0.321
same,interaction score,4H3297-bN,-0.64
same,interaction score,4H3364-bN,-0.855
same,interaction score,4H3381-bN,-2.06
same,interaction score,4H346-bN,2.36
same,interaction score,4H349-bN,1.61
same,interaction score,4H56-bN,-0.978
same,interaction score,4H730-bN,-0.949
same,interaction score,4H796-bN,-0.881
same,interaction score,4H932-bN,-1.52
same,interaction score,4H949-bN,-0.975
DKIAALKAEIAALKAENAALEAKIAALKG [4H2646-AA],interaction score,4H2646-AA,1.66
same,interaction score,4H2687-AA,1.36
same,interaction score,4H2705-AA,-1.19
same,interaction score,4H2758-AA,-0.75
same,interaction score,4H278-AA,0.745
same,interaction score,4H2873-AA,1.89
same,interaction score,4H2985-AA,-0.411
same,interaction score,4H3134-AA,1.28
same,interaction score,4H3409-AA,-0.0843
same,interaction score,4H3625-AA,-0.363
same,interaction score,4H390-AA,1.18
same,interaction score,4H3940-AA,-1.27
same,interaction score,4H510-AA,2.02
same,interaction score,4H775-AA,-0.478
same,interaction score,4H816-AA,-1.37
same,interaction score,4H87-AA,2.43
DKIKQLKKKIEELKRENWELEKENEQLEQ [P4bH1],interaction score,P4bH1,-1.18
same,interaction score,P5bH1,-1.09
same,interaction score,P6bH1,-0.487
same,interaction score,P7bH1,-0.994
same,interaction score,P8bH1,-0.993
same,interaction score,P9bH1,-0.46
